Experimental data from paper PMC6588284 (Biochemistry, 2019).

Legend:
[1] = target: KvAP-C247S (Aeropyrum pernix); assay: cross-linking
[2] = target: KvAPΔCTD+Lys (Aeropyrum pernix); assay: cross-linking
[3] = target: SUMO CTD fusion with the native C247 residue (Aeropyrum pernix); assay: cross-linking
[4] = target: SUMO-GCN4 fusion protein (Aeropyrum pernix | not stated); assay: SEC
[5] = target: SUMO-GCN4 fusion protein (Aeropyrum pernix | not stated); assay: cross-linking
[6] = target: KvAP-C247S (Aeropyrum pernix); assay: cross-linking; remark: listed apart in the source
[7] = target: the molecule itself; assay: SEC

With KvAP-C247S (natural protein) the stoichiometry N [1] was 4.

In the case of KvAPΔCTD+Lys (domain or fragment), the percent cross-linked (tetramer) [2] is reported as 100%, the percent tetramer at 2 hours [2] is reported as 4% and the stoichiometry N [2] is reported as 4. For the same molecule, the tetramer yield relative to the full length protein [2] was 0.5.

In the case of “SUMO CTD fusion with the native C247 residue (domain or fragment)”, the stoichiometry N [3] is reported as 2.

Molecule SUMO-GCN4 fusion protein has a stoichiometry N [4] of 4 and a stoichiometry N [5] of 4.

B1: S6-CTD peptide (peptide)
peptide: CVTATTVGYGDVVPATPIGKVIGIAVMLTGISALTLLIGTVSNMFQKILVGEPEPSSSPAKLAEMVSSMSEEEFEEFVRTLKNLRRLENSMKGS
B1 gave a percent decrease in the KvAP tetramer yield [6] of 60%.

B2: SUMO-CTD fusion protein (domain or fragment, Aeropyrum pernix)
chain: LVGEPEPSSSPAKLAEMVSSMSEEEFEEFVRTLKNLRRLENSMK
In the case of B2, the “stoichiometry N” value [7] is reported as 2.
